From patent publication US20250296959A1, “B7-H3 TARGETING PEPTIDES AND CONSTRUCTS THEREOF” (Mariana Oncology Inc., priority 2024, published 2025)
Starred links: 1 amine or outer side, 2 acyl side, 3 side chain; linkers in the order of their positions; H or OH if unused. Positions of bridges follow the written chain, without caps; N, C: chain ends. Non-standard residues stand in square brackets, D forms with d. Groups on a side chain read outwards from the residue. Primed or numbered codes have the meaning given here. *: point of attachment. R‑DOTAGA = O=C(O)CN1CCN(CC(=O)O)CCN([C@H](CCC(=O)*)C(=O)O)CCN(CC(=O)O)CC1; Ala(piperidin-4-yl) = O=C([C@H](CC1CCN([*:3])CC1)N[*:1])[*:2]; (2S,3S)βMePhe = C[C@@H](c1ccccc1)[C@H](N[*:1])C(=O)[*:2]; DOTA = O=C(O)CN1CCN(CC(=O)O)CCN(CC(=O)*)CCN(CC(=O)O)CC1; Phe(4-NHCONH2) = NC(=O)Nc1ccc(C[C@H](N)C(=O)O)cc1; PipAla = piperidinyl-alanine residue (as named); Trp(5-F) = N[C@@H](Cc1c[nH]c2ccc(F)cc12)C(=O)O; hydroxyVal = hydroxy-valine residue (as named); PEG4′ = 4x 3-(2-aminoethoxy)propanoic acid; hCba = O=C([C@H](CCC1CCC1)N[*:1])[*:2]; γGlu = O=C(O)[C@H](CCC(=O)[*:2])N[*:1]; 1Nal = N[C@@H](Cc1cccc2ccccc12)C(=O)O; Ala(4-THP) = N[C@@H](CC1CCOCC1)C(=O)O; Pip(CH2CO2H)Ala = not defined here; Val(3-OH) = CC(C)(O)[C@H](N)C(=O)O; hCha = N[C@@H](CCC1CCCCC1)C(=O)O; Cha = N[C@@H](CC1CCCCC1)C(=O)O; Tle = CC(C)(C)[C@H](N)C(=O)O; hLeu = CC(C)CC[C@H](N)C(=O)O; Dab = NCC[C@H](N)C(=O)O; Ms = CS(=O)(=O)*; Sar = CNCC(=O)O

B1: Cpd 427 (peptide)
peptide: Ac-[hLeu]YC[Tle]G[PipAla][Ala(4-THP)]DV[Phe(4-NHCONH2)]CXF[hydroxyVal][dK](DOTA)-OH
modifications: disulfide 3-11 (inferred); not fully specified (residue 12); printed as Ac-hLeu-Y-C-Tbg-G-PipAla-ThpA-D-V-Aph(Cbm)-C-5FW-F-hydroxyVal-dLys(DOTA)-COOH, disulfide
B2: Cpd 433 (peptide)
peptide: Ac-[hLeu]YC[Tle]G[PipAla][Ala(4-THP)]DVYCX[(2S,3S)βMePhe][hydroxyVal][dK](DOTA)-OH
modifications: disulfide 3-11 (inferred); not fully specified (residue 12); printed as Ac-hLeu-Y-C-Tbg-G-PipAla-ThpA-D-V-Y-C-5FW-[(2S, 3S)beta-Me-Phe]-hydroxyVal-dLys(DOTA)-COOH, disulfide
B3: Cpd 318 (peptide)
peptide: Ac-[hLeu]YCIG[Pip(CH2CO2H)Ala][Ala(4-THP)]DVYC[Trp(5-F)]F[Val(3-OH)][dK](DOTA)-OH
modifications: disulfide 3-11 (inferred); reading uncertain; also: printed as Ac-hLeu-Y-C-Ile-G-[Pip(CH2CO2H)Ala]-ThpA-D-V-Y-C-5FW-F-hydroxyVal-dLys(DOTA)-COOH; disulfide
B4: Cpd 429 (peptide)
peptide: Ac-[hLeu]YC[Tle]G[PipAla][Ala(4-THP)]DVYCXF[hydroxyVal][dK]([dE-DOTA])-OH
modifications: disulfide 3-11 (inferred); not fully specified (residue 12); printed as Ac-hLeu-Y-C-Tbg-G-PipAla-ThpA-D-V-Y-C-5FW-F-hydroxyVal-dLys(dGlu-DOTA)-COOH, disulfide
B5: Cpd 440 (peptide)
peptide: Ac-[hLeu]YC[Tle]G[PipAla][Ala(4-THP)]DVYCXF[hydroxyVal][dK]([γGlu-DOTA])-OH
modifications: disulfide 3-11 (inferred); not fully specified (residue 12); printed as Ac-hLeu-Y-C-Tbg-G-PipAla-ThpA-D-V-Y-C-5FW-F-hydroxyVal-dLys(gGlu-DOTA)-COOH, disulfide
B6: Cpd 428 (peptide)
peptide: Ac-[hLeu]YC[Tle]G[PipAla][Ala(4-THP)]DVYCXF[hydroxyVal][dK]([Glu-DOTA])-OH
modifications: disulfide 3-11 (inferred); not fully specified (residue 12); printed as Ac-hLeu-Y-C-Tbg-G-PipAla-ThpA-D-V-Y-C-5FW-F-hydroxyVal-dLys(Glu-DOTA)-COOH, disulfide
B7: Cpd 437 (peptide)
peptide: Ms-[hLeu]YC[Tle]G[PipAla][Ala(4-THP)]DVYCXF[hydroxyVal][dK](DOTA)-OH
modifications: disulfide 3-11 (inferred); not fully specified (residue 12); printed as MeSO2-hLeu-Y-C-Tbg-G-PipAla-ThpA-D-V-Y-C-5FW-F-hydroxyVal-dLys(DOTA)-COOH, disulfide
B8: Cpd 438 (peptide)
peptide: Ac-[hLeu]YC[Tle]G[PipAla][Ala(4-THP)]DVYCXF[hydroxyVal][dK](R‑DOTAGA)-OH
modifications: disulfide 3-11 (inferred); not fully specified (residue 12); printed as Ac-hLeu-Y-C-Tbg-G-PipAla-ThpA-D-V-Y-C-5FW-F-hydroxyVal-dLys(R-DOTAGA)-COOH, disulfide

Each binder was assayed against B7-H3 on Calu-6 cells (human) (UniProt Q5ZPR3) (assay: 177Lu-labelled peptide on Calu-6 cells, % cell associated fraction; C = >50%).
With Ac-[hLeu]YC[Tle]G[PipAla][Ala(4-THP)]DVYC[Trp(5-F)][(2S,3S)βMePhe][Val(3-OH)][dK]([dE-DOTA])-OH (disulfide 3-11 (inferred)) [Cpd 501] the % cell associated fraction was > 50%.
In the case of Ac-[hLeu]YC[Tle]G[PipAla][Ala(4-THP)]DVYC[Trp(5-F)]F[hydroxyVal][dK]([hGlu-DOTA])-OH (disulfide 3-11 (inferred)) [Cpd 464], the % cell associated fraction is reported as > 50%.
With Ac-[hLeu]YC[Tle]G[Pip(PEG4-DOTA)Ala][Ala(4-THP)]DVYC[Trp(5-F)]F[Val(3-OH)][dS]-NH2 (disulfide 3-11 (inferred)) [Cpd 407] the % cell associated fraction was > 50%.
In the case of Ac-[hLeu]YC[Tle]G[PipAla](CH2COOH)[Ala(4-THP)]DV[Phe(4-NHCONH2)]C[Trp(5-F)][(2S,3S)βMePhe][Val(3-OH)][dK](DOTA)-OH (disulfide 3-11 (inferred)) [Cpd 499], the % cell associated fraction is reported as > 50%.
With Ac-[hLeu]YC[Tle]G[PipAla](CH2COOH)[Ala(4-THP)]DVYC[Trp(5-F)][(2S,3S)βMePhe][Val(3-OH)][dK](DOTA)-OH (disulfide 3-11 (inferred)) [Cpd 497] the % cell associated fraction was > 50%.
For Ac-[hLeu]YC[Tle]GK[Pip(PEG4-DOTA)Ala]DVYC[Trp(5-F)]F[Val(3-OH)][dS]-NH2 (disulfide 3-11 (inferred)) [Cpd 408], the % cell associated fraction was > 50%.
In the case of B1, the % cell associated fraction is reported as > 50%.
In the case of Ac-[hLeu]YCVG[Ala(piperidin-4-yl)][Cha]DVYC[Trp(5-F)]F[Val(3-OH)][dK](DOTA)-NH2 (disulfide 3-11 (inferred)) [Cpd 227], the % cell associated fraction is reported as > 50%.
Ac-[hLeu]YC[Tle]GK[Pip(PEG4-DOTA)Ala]DVYC[Trp(5-F)]F[Val(3-OH)][dA]-NH2 (disulfide 3-11 (inferred)) [Cpd 385] was tested, and the % cell associated fraction was > 50%.
Ac-[hLeu]YC[Tle]G[Ala(piperidin-4-yl)][Ala(4-THP)]DVYC[Trp(5-F)]F[Val(3-OH)][dK](DOTA)-OH (disulfide 3-11 (inferred)) [Cpd 340] was tested, and the % cell associated fraction was > 50%.
For Ac-[hLeu]YC[Tle]G[PipAla](CH2CO2H)[Ala(4-THP)]DVYC[Trp(5-F)]F[Val(3-OH)][dK](DOTA)-OH (disulfide 3-11 (inferred)) [Cpd 339], the % cell associated fraction was > 50%.
For B2, the % cell associated fraction was > 50%.

What follows are binders tested against B7-H3 on Calu-6 cells (human) (UniProt Q5ZPR3) (assay: 177Lu-labelled peptide on Calu-6 cells, % cell associated fraction; B = 25<%<=50).
With Ac-[hCba]YC[Tle]GK[Ala(4-THP)]DVYC[Trp(5-F)]F[Val(3-OH)][dK](DOTA)-OH (disulfide 3-11 (inferred)) [Cpd 398] the % cell associated fraction was 25 to 50%.
Work on Ac-[hLeu]YC[Tle]G[PipAla][Ala(4-THP)]DVYC[Trp(5-F)]F[hydroxyVal][dK]([PEG4′-DOTA])-OH (disulfide 3-11 (inferred)) [Cpd 465] yielded a % cell associated fraction of 25 to 50%.
Work on Ac-[hLeu]YC[Tle][Sar]K[Ala(4-THP)]DVYC[Trp(5-F)]F[Val(3-OH)][dK](DOTA)-OH (disulfide 3-11 (inferred)) [Cpd 348] yielded a % cell associated fraction of 25 to 50%.
With Ac-[hLeu]YC[Tle]GK[Pip(PEG4-DOTA)Ala]DVYC[Trp(5-F)]F[Val(3-OH)][dE]-NH2 (disulfide 3-11 (inferred)) [Cpd 410] the % cell associated fraction was 25 to 50%.
Ac-[hLeu]YC[Tle]G[Dab][Ala(4-THP)]DVYC[Trp(5-F)]F[Val(3-OH)][dK](DOTA)-OH (disulfide 3-11 (inferred)) [Cpd 371] showed a % cell associated fraction of 25 to 50%.
In the case of Ac-[hLeu]YC[Tle]GK(DOTA)[Ala(4-THP)]DVYC[Trp(5-F)]F[Val(3-OH)]-NH2 (disulfide 3-11 (inferred)) [Cpd 338], the % cell associated fraction is reported as 25 to 50%.
For Ac-[hCha]YC[Tle]GK[Ala(4-THP)]DVYC[Trp(5-F)]F[Val(3-OH)][dK](DOTA)-OH (disulfide 3-11 (inferred)) [Cpd 368], the % cell associated fraction was 25 to 50%.
With Ac-[hLeu]YC[Tle]G[PipAla][Ala(4-THP)]DVYC[1Nal]F[hydroxyVal][dK](DOTA)-OH (disulfide 3-11 (inferred)) [Cpd 436] the % cell associated fraction was 25 to 50%.
B3 was tested, and the % cell associated fraction was 25 to 50%.
In the case of B4, the % cell associated fraction is reported as 25 to 50%.
For B5, the % cell associated fraction was 25 to 50%.
Binder B6 has a % cell associated fraction of 25 to 50%.
Ac-[hLeu]YC[Tle]G[PipAla](CH2COOH)[PipAla]([PEG4′-DOTA])DVYC[Trp(5-F)][(2S,3S)βMePhe][Val(3-OH)][dE]-NH2 (disulfide 3-11 (inferred)) [Cpd 496] gave a % cell associated fraction of 25 to 50%.
Ac-[hLeu]YC[Tle]GK[Pip(PEG4-DOTA)Ala]DVYC[Trp(5-F)]F[Val(3-OH)]-NH2 (disulfide 3-11 (inferred)) [Cpd 383] showed a % cell associated fraction of 25 to 50%.
In the case of Ac-[hLeu]YC[Tle]GK[Ala(4-THP)]DVYC[Trp(5-F)]F[Val(3-OH)][dK](DOTA)-NH2 (disulfide 3-11 (inferred)) [Cpd 366], the % cell associated fraction is reported as 25 to 50%.
Ac-[hLeu]YC[Tle]G[Pip(PEG4-DOTA)Ala][Ala(4-THP)]DVYC[Trp(5-F)]F[Val(3-OH)][dA]-NH2 (disulfide 3-11 (inferred)) [Cpd 384] showed a % cell associated fraction of 25 to 50%.
With B7 the % cell associated fraction was 25 to 50%.
B8 was tested, and the % cell associated fraction was 25 to 50%.
